{"source": "paper PMC8279004", "key": {"[1]": {"molecular_target": "H4K16ac nucleosome (Xenopus | not stated)", "experiment": "native gel or EMSA"}, "[2]": {"molecular_target": "unmodified nucleosome (Xenopus)", "experiment": "native gel or EMSA"}}, "data": [{"substance": "catalytic domain of yeast Dot1 (residues 158 to 582) (from UniProt Q04089 158-582) (domain or fragment)", "values": [{"measurement": "Kd", "setting": "[1]", "value": 83.3, "unit": "nM"}, {"measurement": "Kd", "setting": "[2]", "value": 70.8, "unit": "nM"}]}]}
